# Measurements published in patent US20210069338A1 (published 2021).
# Biological target: T1, human transferrin receptor (TfR) on hCMEC/D3 brain endothelial cells (human, UniProt P02786 1-760)
# T1 construct: whole, on cells; also called blood brain barrier receptor
# Experiment: hCMEC/D3 transwell assay, IgG ELISA of cell lysates and media
# Procedure: We used brain endothelial cells (hCMEC/D3) to investigate cell binding and transcytosis of the shuttle modules as reported herein. […] To investigate cell binding and transcytosis in hCMEC/D3, hCMEC/D3 cells cultured on filter inserts were incubated apically with the bispecific antibody or parent antibody (without hapten-binding scFvs as controls) for 1 h at 37° C. Cell monolayers were washed at RT in serum-free medium apically (400 μl) and basolaterally (1600 μl) three times for 3-5 min. each. All wash volumes were collected to monitor efficiency of removal of the unbound ligand or antibody. Pre-warmed medium was added to the apical chamber and the filters transferred to a fresh 12 well plate (blocked overnight with PBS containing 1% BSA) containing 1600 μl pre-warmed medium. At this point, cells on some of the filters were lysed in 500 μl RIPA buffer (Sigma, Munich, Germany, #R0278) in order to determine specific uptakes. The remaining filters were incubated at 37° C., and samples of cells and of basolateral and apical media were collected at various time points to determine apical and/or basolateral release. The content of antibody in the samples was quantified using a highly sensitive IgG ELISA.
# T1 sequence (P02786 whole entry): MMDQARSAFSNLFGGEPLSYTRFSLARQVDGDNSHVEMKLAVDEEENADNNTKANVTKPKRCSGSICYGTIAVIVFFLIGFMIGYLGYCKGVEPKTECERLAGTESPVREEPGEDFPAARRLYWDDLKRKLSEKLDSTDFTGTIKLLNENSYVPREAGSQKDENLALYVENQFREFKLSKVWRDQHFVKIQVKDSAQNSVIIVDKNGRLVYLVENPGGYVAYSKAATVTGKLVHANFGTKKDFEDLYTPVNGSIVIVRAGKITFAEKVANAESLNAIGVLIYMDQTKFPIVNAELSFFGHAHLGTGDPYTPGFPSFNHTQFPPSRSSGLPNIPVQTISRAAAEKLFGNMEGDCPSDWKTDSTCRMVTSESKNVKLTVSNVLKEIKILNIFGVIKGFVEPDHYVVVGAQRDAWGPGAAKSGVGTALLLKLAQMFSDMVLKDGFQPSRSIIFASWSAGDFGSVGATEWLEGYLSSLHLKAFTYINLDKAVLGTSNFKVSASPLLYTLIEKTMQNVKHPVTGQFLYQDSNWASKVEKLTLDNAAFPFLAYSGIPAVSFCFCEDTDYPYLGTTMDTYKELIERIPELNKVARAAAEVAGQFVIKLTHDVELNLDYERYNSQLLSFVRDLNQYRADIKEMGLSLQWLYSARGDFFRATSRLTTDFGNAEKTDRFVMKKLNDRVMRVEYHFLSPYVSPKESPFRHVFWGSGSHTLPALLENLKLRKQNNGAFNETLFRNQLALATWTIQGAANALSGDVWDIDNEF
row,Binder,binding result
1,"TfR1-Bio bispecific antibody (biotinylated payload binding blood brain barrier-shuttle module that binds TfR with high affinity) (bispecific antibody, human IgG1, kappa, also called anti-TfR1 antibody-Bio) light: QIVLTQSPAIMSASPGEKVTMTCSASSSIRYIHWYQQRPGTSPKRWIYDTSNLASGVPARFSGSGSGTSYSLTISSMEAEDAATYYCHQRNSYPWTFGGGTRLEIKRTVAAPSVFIFPPSDEQLKSGTASVVCLLNNFYPREAKVQWKVDNALQSGNSQESVTEQDSKDSTYSLSSTLTLSKADYEKHKVYACEVTHQGLSSPVTKSFNRGEC heavy: not shown",binds
2,"TfR2-Bio bispecific antibody (biotinylated payload binding blood brain barrier-shuttle module that binds TfR with reduced affinity) (bispecific antibody, human IgG1, kappa, also called anti-TfR2-Bio) light: QIVLTQSPAIMSASPGEKVTVTCSASSSIRYMHWYQQKPGTSPKRWIYDTSELASGVPARFSGSGSGTSYSLTINSMEAEDAATYYCHQRSSYPFTFGGGTKLEIKRTVAAPSVFIFPPSDEQLKSGTASVVCLLNNFYPREAKVQWKVDNALQSGNSQESVTEQDSKDSTYSLSSTLTLSKADYEKHKVYACEVTHQGLSSPVTKSFNRGEC heavy: not shown",binds
3,"anti-TfR1 antibody (high affinity bivalent anti-TfR antibody, parent antibody without hapten-binding scFvs) (antibody, human IgG1, kappa, V domains shown, also called antibody TfR1) VH: EVQLQQSGPELVKPGASMKISCKASGYSFTGYTMNWVKQSHGENLEWIGRINPHNGGTDYNQKFKDKAPLTVDKSSNTAYMELLSLTSEDSAVYYCARGYYYYSLDYWGQGTSVTVSS VL: QIVLTQSPAIMSASPGEKVTMTCSASSSIRYIHWYQQRPGTSPKRWIYDTSNLASGVPARFSGSGSGTSYSLTISSMEAEDAATYYCHQRNSYPWTFGGGTRLEIKR",binds
4,"anti-TfR2 antibody (bivalent anti-TfR antibody with reduced affinity, parent antibody without hapten-binding scFvs) (antibody, human IgG1, kappa, V domains shown, also called antibody TfR2) VH: EVQLQQSGPELVKPGASVKMSCKASGYTFTSYVMHWVKQKPGQGLEWIGYVNPYNDDTKYNEKFRGKATLTSDKSSSTAYMELSSLTSEDSAVYYCARSYYYYSMDNWGQGTSVTVSS VL: QIVLTQSPAIMSASPGEKVTVTCSASSSIRYMHWYQQKPGTSPKRWIYDTSELASGVPARFSGSGSGTSYSLTINSMEAEDAATYYCHQRSSYPFTFGGGTKLEIKR",binds

# Biological target: T1, human transferrin receptor (TfR) on …
# Experiment: FACS on hCMEC/D3 cells, anti-IgG-PE detection, Dig-Cy5 as payload
# Source text: To evaluate this functionality of the hapten-binding bispecific antibodies as reported herein, simultaneous cell surface and payload binding was addressed by FACS analyses. For these analyses, cell binding of the blood brain barrier-shuttle module (=bispecific antibody) was detected by phytoerythrin-labeled IgG recognizing secondary antibodies. Simultaneous payload binding was detected by application of a haptenylated fluorescent payload (digoxigenylated Cy5; DIG-Cy5 (see above)).
row,Binder,binding result
1,"TfR1-Dig bispecific antibody (digoxigenylated payload binding blood brain barrier-shuttle module that binds TfR with high affinity) (bispecific antibody, human IgG1, kappa, also called anti-TfR1 antibody-Dig) light: QIVLTQSPAIMSASPGEKVTMTCSASSSIRYIHWYQQRPGTSPKRWIYDTSNLASGVPARFSGSGSGTSYSLTISSMEAEDAATYYCHQRNSYPWTFGGGTRLEIKRTVAAPSVFIFPPSDEQLKSGTASVVCLLNNFYPREAKVQWKVDNALQSGNSQESVTEQDSKDSTYSLSSTLTLSKADYEKHKVYACEVTHQGLSSPVTKSFNRGEC heavy: not shown",binds
2,"TfR2-Dig bispecific antibody (digoxigenylated payload binding blood brain barrier-shuttle module that binds TfR with reduced affinity) (bispecific antibody, human IgG1, kappa, also called anti-TfR2-antibody Dig) light: QIVLTQSPAIMSASPGEKVTVTCSASSSIRYMHWYQQKPGTSPKRWIYDTSELASGVPARFSGSGSGTSYSLTINSMEAEDAATYYCHQRSSYPFTFGGGTKLEIKRTVAAPSVFIFPPSDEQLKSGTASVVCLLNNFYPREAKVQWKVDNALQSGNSQESVTEQDSKDSTYSLSSTLTLSKADYEKHKVYACEVTHQGLSSPVTKSFNRGEC heavy: not shown",binds
